Our source for the stoichiometry N values is publication PMC4934132.

For orientation: stoichiometry N means a count of units in the complex or per binding partner.

In this experiment the target is HPV16 L1 pentamers (L1 assembly mutant C428S) (HPV16). In words: electron microscopy.

Regarding “HPV16 L1 pentamers (L1 assembly mutant C428S) (natural protein)”, the stoichiometry N worked out at 5.
